B1: aSA3 (VHH)
VHH: QVQLVESGGGLVQPGGSLRLSCAASGFTSDHYALAWFRQAPGKEREGVSCIDSDGNPFYADSVKGRFTGSRDNAKNTVYLQMNSLKLEDTAVYYCAAGLWYGRSLNSFDYDYWGQGTQVTVSS
B2: aRBD-2 (VHH)
VHH: QVQLVESGGGLVQAGGSLRLSCAASGRTYTMGWFRQAPGKEREFVAAMRWSDTDYADSLKGRFTISRDNANNAMYLQMNSLGPEDTAVYYCAAGEAWLARSTHHYDYWGQGTQVTVSS

Key:
WT SARS2 RBD [1] = target: T1, WT SARS2 RBD (SARS-CoV-2 Wuhan (MN908947), UniProt P0DTC2); experiment: cell-based or functional assay
WT SARS2 RBD [2] = target: T1, WT SARS2 RBD; experiment: SPR; conditions: both partners purified

Binder | IC50, neutralisation of WT SARS2 pseudovirus (blocks RBD-ACE2) (WT SARS2 RBD [1]) | Kd (WT SARS2 RBD [2]) | binding result (WT SARS2 RBD [2])
B1 | 0.97 nM | 0.0519 nM | 
B2 |  |  | binds

From article PMC9734137 (Cell Discovery, 2022)
